According to publication PMC4405707:

Molecular target: TARP γ-2 (rat) (UniProt Q71RJ2)
Experiment: co-IP; GluA2 variants transfected into HEK293T cells stably expressing TARP γ-2; proteins extracted under mild detergent conditions; IP with an anti-γ-2 antibody, blot probed with polyclonal GluA2 antibody; amounts normalized to the input

Sequence of TARP γ-2 (rat) (Q71RJ2 whole entry): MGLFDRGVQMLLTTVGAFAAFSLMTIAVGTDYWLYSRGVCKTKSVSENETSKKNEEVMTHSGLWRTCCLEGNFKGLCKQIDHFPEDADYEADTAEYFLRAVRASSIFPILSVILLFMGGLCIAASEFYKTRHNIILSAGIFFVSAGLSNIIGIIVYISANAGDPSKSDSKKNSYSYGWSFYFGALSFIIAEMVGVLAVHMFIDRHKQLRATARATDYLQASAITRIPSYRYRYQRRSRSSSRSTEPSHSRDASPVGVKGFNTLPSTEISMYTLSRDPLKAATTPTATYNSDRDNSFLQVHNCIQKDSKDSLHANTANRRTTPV
Sequence of GluA2i-ΔNTD (flip, R607) (P19491 other isoform, or with tags, fused parts or gaps, stated change not applied): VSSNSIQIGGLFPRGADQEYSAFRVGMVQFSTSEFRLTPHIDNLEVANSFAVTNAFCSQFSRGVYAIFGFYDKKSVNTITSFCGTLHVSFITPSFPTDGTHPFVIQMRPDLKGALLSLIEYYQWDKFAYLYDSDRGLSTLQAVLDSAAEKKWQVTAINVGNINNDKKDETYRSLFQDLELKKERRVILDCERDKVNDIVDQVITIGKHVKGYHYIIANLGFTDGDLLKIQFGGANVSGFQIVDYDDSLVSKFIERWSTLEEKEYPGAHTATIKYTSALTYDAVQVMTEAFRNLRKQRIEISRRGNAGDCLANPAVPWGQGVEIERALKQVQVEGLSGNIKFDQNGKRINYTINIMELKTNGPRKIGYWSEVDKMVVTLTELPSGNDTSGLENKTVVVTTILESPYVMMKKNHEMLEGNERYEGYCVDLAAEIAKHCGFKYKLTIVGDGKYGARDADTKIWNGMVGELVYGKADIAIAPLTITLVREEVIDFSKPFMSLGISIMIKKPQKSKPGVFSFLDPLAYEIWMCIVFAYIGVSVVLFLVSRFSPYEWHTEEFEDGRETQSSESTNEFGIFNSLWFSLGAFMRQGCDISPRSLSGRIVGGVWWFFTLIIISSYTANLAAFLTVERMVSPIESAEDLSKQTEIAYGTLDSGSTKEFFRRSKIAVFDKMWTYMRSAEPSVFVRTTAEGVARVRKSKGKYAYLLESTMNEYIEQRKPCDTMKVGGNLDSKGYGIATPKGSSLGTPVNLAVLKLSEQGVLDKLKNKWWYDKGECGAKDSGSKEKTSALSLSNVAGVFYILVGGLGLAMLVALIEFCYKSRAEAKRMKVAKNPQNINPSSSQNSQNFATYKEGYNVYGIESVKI
Sequence of GluA2o-R607 ΔNTD (flop Δ-NTD mutant) (P19491 other isoform, or with tags, fused parts or gaps, stated change not applied): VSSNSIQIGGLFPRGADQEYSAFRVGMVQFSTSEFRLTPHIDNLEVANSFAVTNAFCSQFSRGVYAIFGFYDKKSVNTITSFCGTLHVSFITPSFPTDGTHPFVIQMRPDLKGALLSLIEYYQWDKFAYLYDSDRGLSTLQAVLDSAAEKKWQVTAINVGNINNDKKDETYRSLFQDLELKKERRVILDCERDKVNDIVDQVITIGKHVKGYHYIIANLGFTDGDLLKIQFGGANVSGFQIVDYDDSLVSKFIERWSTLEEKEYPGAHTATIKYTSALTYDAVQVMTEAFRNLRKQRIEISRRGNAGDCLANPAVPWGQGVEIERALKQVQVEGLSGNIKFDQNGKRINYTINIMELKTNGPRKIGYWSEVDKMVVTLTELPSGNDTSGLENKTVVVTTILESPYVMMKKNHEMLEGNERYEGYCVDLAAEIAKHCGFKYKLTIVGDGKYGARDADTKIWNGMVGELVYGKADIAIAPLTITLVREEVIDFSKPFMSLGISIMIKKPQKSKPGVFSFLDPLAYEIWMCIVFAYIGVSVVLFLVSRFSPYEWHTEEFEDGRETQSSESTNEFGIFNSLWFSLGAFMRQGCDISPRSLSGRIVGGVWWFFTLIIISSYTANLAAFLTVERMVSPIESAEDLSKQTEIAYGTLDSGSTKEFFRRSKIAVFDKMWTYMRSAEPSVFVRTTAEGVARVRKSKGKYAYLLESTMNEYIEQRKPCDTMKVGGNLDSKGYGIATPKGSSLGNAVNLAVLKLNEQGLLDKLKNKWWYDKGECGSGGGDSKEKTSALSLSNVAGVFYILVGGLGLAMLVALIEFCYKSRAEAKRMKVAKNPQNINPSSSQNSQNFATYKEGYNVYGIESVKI

| fold reduction of coIP by the Q to R switch (ΔNTD R607 against ΔNTD Q607) [fold] | ratio of IPed GluA2i WT to GluA2i-ΔNTD, normalized to the input [fold] | fold less efficiently precipitated than the flip ΔNTD counterpart [fold] | Substance |
| --- | --- | --- | --- |
| 2.2 | 2.9 |  | GluA2i-ΔNTD (flip, R607) (from UniProt P19491-2 22-883) (receptor) |
|  |  | 2.9 | GluA2o-R607 ΔNTD (flop Δ-NTD mutant) (from UniProt P19491 22-883) (receptor) |
